B1: Ribonucleoside-diphosphate reductase subunit M2 (Homo sapiens), P31350 (parent)
chain: MLSLRVPLAPITDPQQLQLSPLKGLSLVDKENTPPALSGTRVLASKTARRIFQEPTEPKTKAAAPGVEDEPLLRENPRRFVIFPIEYHDIWQMYKKAEASFWTAEEVDLSKDIQHWESLKPEERYFISHVLAFFAASDGIVNENLVERFSQEVQITEARCFYGFQIAMENIHSEMYSLLIDTYIKDPKEREFLFNAIETMPCVKKKADWALRWIGDKEATYGERVVAFAAVEGIFFSGSFASIFWLKKRGLMPGLTFSNELISRDEGLHCDFACLMFKHLVHKPSEERVREIIINAVRIEQEFLTEALPVKLIGMNCTLMKQYIEFVADRLMLELGFSKVFRVENPFDFMENISLEGKTNFFEKRVGEYQRMGVMSSPTENSFTLDADF
partner: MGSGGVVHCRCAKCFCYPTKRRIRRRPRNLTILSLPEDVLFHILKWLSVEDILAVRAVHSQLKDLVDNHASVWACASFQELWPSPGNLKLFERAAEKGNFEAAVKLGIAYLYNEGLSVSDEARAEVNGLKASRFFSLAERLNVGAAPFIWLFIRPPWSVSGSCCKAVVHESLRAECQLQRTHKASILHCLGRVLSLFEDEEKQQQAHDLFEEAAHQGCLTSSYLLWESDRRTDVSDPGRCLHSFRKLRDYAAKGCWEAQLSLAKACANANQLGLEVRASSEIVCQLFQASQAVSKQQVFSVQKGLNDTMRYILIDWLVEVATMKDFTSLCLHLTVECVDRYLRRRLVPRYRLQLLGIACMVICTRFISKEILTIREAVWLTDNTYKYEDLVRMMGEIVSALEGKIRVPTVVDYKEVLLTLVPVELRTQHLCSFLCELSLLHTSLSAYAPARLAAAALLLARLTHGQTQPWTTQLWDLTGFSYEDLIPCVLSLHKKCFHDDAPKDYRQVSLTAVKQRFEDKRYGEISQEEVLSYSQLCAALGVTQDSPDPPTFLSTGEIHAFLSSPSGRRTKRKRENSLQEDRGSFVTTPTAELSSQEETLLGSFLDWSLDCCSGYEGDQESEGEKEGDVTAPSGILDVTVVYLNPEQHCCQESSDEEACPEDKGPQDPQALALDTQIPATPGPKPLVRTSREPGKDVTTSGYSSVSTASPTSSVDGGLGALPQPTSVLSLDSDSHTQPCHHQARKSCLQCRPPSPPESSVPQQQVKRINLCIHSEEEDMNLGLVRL
B2: Cyclin-F (Homo sapiens), P41002 (parent)
chain: B1 partner
B3: Cyclin-F (Homo sapiens), P41002 (parent)
chain: B1 partner
partner: B1 chain

Variants of: B1
Details: with ccnf_human CCNF
With R49A;I51A the “effect of a mutation on the interaction” value was “disrupting interaction strength”. With T33A the “effect of a mutation on the interaction” value was “decreasing interaction strength”.

Variants of: B1
Details: with ccnf_human CCNF
Remark: another data set of the same source
With T33A the “effect of a mutation on the interaction” value was “disrupting interaction strength”.

Variants of: B2
Details: with cp110_human CCP110, O43303
Sequence of cp110_human CCP110, O43303 (O43303 whole entry): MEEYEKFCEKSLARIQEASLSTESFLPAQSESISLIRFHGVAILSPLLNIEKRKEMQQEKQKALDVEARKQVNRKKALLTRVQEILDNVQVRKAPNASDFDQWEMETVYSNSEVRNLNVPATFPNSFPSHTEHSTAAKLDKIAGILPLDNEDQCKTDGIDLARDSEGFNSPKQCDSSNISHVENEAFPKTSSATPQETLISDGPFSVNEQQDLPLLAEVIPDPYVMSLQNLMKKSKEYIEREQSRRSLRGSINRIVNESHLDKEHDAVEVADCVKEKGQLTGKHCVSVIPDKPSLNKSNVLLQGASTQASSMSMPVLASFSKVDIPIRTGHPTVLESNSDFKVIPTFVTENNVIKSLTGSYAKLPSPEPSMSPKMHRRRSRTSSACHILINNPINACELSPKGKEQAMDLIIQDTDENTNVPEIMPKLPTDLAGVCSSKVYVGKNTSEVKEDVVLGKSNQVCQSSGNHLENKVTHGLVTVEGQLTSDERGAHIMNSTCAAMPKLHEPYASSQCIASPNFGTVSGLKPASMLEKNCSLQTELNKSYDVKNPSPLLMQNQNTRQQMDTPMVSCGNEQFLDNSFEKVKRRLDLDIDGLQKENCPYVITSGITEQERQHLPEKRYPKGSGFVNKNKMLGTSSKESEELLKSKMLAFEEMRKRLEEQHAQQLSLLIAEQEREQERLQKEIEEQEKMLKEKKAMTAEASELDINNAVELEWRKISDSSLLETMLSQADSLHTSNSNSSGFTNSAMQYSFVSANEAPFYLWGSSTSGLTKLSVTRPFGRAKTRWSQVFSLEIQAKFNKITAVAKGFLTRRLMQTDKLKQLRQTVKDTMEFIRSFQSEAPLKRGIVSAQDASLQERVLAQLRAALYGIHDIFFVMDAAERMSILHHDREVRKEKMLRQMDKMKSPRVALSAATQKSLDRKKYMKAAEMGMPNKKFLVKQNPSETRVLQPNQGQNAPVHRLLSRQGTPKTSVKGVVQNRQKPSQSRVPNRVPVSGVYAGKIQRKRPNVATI
With L35A;P36A the “effect of a mutation on the interaction” value was “increasing interaction strength”.

Variants of: B3
Details: with rir2_human RRM2, P31350
With L35A;P36A the “effect of a mutation on the interaction” value was “increasing interaction strength”.
